# According to patent US20260109761A1 (IP2IPO INNOVATIONS, published 2026):
# B1: H2_T63Y_VL-par (antibody, V domains shown)
# VH: QVQLVESGGGVVQPGRSLRLSCAASGFTFSDYGMHWVRQAPGKGLEWVAYISSGGTTIYYADYVKGRFTISRDNSKNTLYLQMNSLRAEDTAVYYCARWTNLYAMDYWGQGTTVTVSS
# VL: DIVLTQSPDSLAVSLGERATINCRASKSVSTSGYSYMHWYQQKPGQPPKFLIYLASNLESGVPDRFSGSGSGTDFTLTISSLQAEDVAVYYCQHSREVPYTFGGGTKVEIKR
# notes: Fc null human IgG1 / human kappa
# B2: H3_W99H_VL-par (antibody, V domains shown)
# VH: QVQLVESGGGVVQPGRSLRLSCAASGFTFSDYGMHWVRQAPGKGLEWVAYISSGGTTIYYADTVKGRFTISRDNSKNTLYLQMNSLRAEDTAVYYCARHTNLYAMDYWGQGTTVTVSS
# VL: DIVLTQSPDSLAVSLGERATINCRASKSVSTSGYSYMHWYQQKPGQPPKFLIYLASNLESGVPDRFSGSGSGTDFTLTISSLQAEDVAVYYCQHSREVPYTFGGGTKVEIKR
# notes: as for B1
# B3: H3_M105P_L2 (antibody, V domains shown)
# VH: QVQLVESGGGVVQPGRSLRLSCAASGFTFSDYGMHWVRQAPGKGLEWVAYISSGGTTIYYADTVKGRFTISRDNSKNTLYLQMNSLRAEDTAVYYCARWTNLYAPDYWGQGTTVTVSS
# VL: DIVLTQSPDSLAVSLGERATINCRASKSVSTSGYSYMHWYQQKPGQPPKFLIYLASNKESGVPDRFSGSGSGTDFTLTISSLQAEDVAVYYCQHSREVPYTFGGGTKVEIKR
# notes: as for B1
# B4: H2_Y60K_L2 (antibody, V domains shown)
# VH: QVQLVESGGGVVQPGRSLRLSCAASGFTFSDYGMHWVRQAPGKGLEWVAYISSGGTTIYKADTVKGRFTISRDNSKNTLYLQMNSLRAEDTAVYYCARWTNLYAMDYWGQGTTVTVSS
# VL: DIVLTQSPDSLAVSLGERATINCRASKSVSTSGYSYMHWYQQKPGQPPKFLIYLASNKESGVPDRFSGSGSGTDFTLTISSLQAEDVAVYYCQHSREVPYTFGGGTKVEIKR
# notes: as for B1
# Molecular target: T1, huZIP12-ECD-GST (human, UniProt Q504Y0 24-202)
# T1 construct: also called hZIP12-ECD-GST; human ZIP12-ECD-GST; not shown: glutathione S-transferase (GST) tag
# T1 sequence (Q504Y0 24-202): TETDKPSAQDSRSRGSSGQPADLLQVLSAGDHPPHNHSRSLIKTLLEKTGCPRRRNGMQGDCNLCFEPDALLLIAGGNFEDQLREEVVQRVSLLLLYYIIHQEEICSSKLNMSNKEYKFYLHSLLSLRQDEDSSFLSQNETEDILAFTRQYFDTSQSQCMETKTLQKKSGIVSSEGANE
# Experiment: HTRF competition: unlabelled antibody against Tb-labelled 51B12-parent on hZIP12-ECD-GST, detected with anti-GST-XL665
# Description: Homogeneous Time Resolved Fluorescence (HTRF) assays were used to analyse the antibodies. A checkerboard assay was performed to validate the binding of the terbium labeled-antibody with hZIP12-ECD-GST. Serial dilutions (starting at 1000 ng/ml, semi-log dilutions) of Terbium-labeled 51B12-parent were incubated with serial dilutions of hZIP12-ECD-GST (starting at 5000 ng/ml, semi-log dilutions) followed by incubation with anti-GST-XL665. After excitation (320 nm), emission signals were obtained and HTRF ratio was calculated (665 nm/615 nm, Panel A). Signal/background ratios (S/B) were calculated from the HTRF ratios (0 ng/ml hZIP12-ECD-GST as background signal) and plotted against the Tb-51B12-parent concentration. The combinations 500 ng/ml hZIP12-ECD-GST+50 ng Tb-Ab, 150 ng/ml hZIP12-ECD-GST+50 ng Tb-Ab and 50 ng/ml hZIP12-ECD-GST+50 ng Tb-Ab were chosen as range for the competition assay. For the HTRF assay, 150 ng/ml hZIP12-ECD-GST+30 ng/ml Tb-51B12 was selected.
row,Binder,IC50 (read off the curve)
1,B1,~0.2 µg/mL
2,B2,~0.06 µg/mL
3,B3,~0.2 µg/mL
4,B4,~0.06 µg/mL
